Data reported in publication PMC5384396 (Oncoimmunology, 2017).

Key:
[1] = molecular target: T1, hGITR on hGITR-transfected Jurkat cells (human, UniProt Q9Y5U5 26-241); test: cell-based or functional assay
T1 sequence: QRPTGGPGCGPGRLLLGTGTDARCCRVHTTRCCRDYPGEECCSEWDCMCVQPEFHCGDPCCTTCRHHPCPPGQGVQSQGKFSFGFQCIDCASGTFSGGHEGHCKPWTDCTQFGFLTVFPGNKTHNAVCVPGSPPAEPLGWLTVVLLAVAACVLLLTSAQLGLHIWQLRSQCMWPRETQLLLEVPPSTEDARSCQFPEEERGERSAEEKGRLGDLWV

[2] = molecular target: the molecule itself

B1: hGITRL FP with the yeast GCN4 pII trimerization domain (Fc fusion)
chain: not shown
NFκB-luciferase reporter in hGITR-transfected Jurkat cells, agonism EC50 [1]: 0.89 nM
stoichiometry N [2]: 6
